Results reported in patent US20230192896A1 (BIOVERATIV THERAPEUTICS, published 2023).

Molecular target: T1, non-activatable Factor X (FXn) (Homo sapiens (Human), UniProt P00742 41-488, single biotin on the C-terminal BioTag)
T1 construct: also called BIIB-FX-015
Assay: BLI; class meaning: paragraph 285

| Binder | binding result |
| --- | --- |
| BIIB-12-937 (antibody, V domains shown, IgG) VH: QVQLVQSGAEVKKPGASVKVSCKASGYTFTSYYMHWVRQAPGQGLEWMGIINPSGGSTSYAQKFQGRVTMTRDTSTSTVYMELSSLRSEDTAVYYCARPTRMLRSYGMDVWGQGTTVTVSS VL: not shown | binds |
| BIIB-12-1295 (antibody, V domains shown, IgG) VH: QVQLVQSGAEVKKPGASVKVSCKASGYTFTSYYMVWVRQAPGQGLEWMGIINPSGGSTSYAQKFQGRVTMTRDTSTSTVYMELSSLRSEDTAVYYCARVGGATTGKIGYGMDVWGQGTTVTVSS VL: DIQMTQSPSSVSASVGDRVTITCRASQGISSWLAWYQQKPGKAPKLLIYAASNLQSGVPSRFSGSGSGTDFTLTISSLQPEDFATYYCQQAISLPITFGGGTKVEIK | binds |
| BIIB-12-1307 (antibody, V domains shown, IgG) VH: QVQLQESGPGLVKPSETLSLTCAVSGYSISSGYYWAWIRQPPGKGLEWIGSIYHSGSTYYNPSLKSRVTISVDTSKNQFSLKLSSVTAADTAVYYCARGPLPRSRGLAFDIWGQGTMVTVSS VL: DIQLTQSPSSLSASVGDRVTITCRASQSISSFLNWYQQKPGKAPKLLIYAASSLQSGVPSRFSGSGSGTDFTLTISSLQPEDFATYYCQQTYSTPLTFGGGTKVEIK | binds |
| BIIB-12-1288 (antibody, V domains shown, IgG) VH: QVQLVQSGAEVKKPGASVKVSCKASGYTFTSYYMHWVRQAPGQGLEWMGIINPSGGSTSYAQKFQGRVTMTRDTSTSTVYMELSSLRSEDTAVYYCARGGANDYGSSSRWWYFDLWGRGTLVTVSS VL: not shown | binds |
| BIIB-12-933 (antibody, V domains shown, IgG) VH: QVQLVESGGGVVQPGRSLRLSCAASGFTFSSYGMHWVRQAPGKGLEWVAVISYDGSNKYYADSVKGRFTISRDNSKNTLYLQMNSLRAEDTAVYYCARLPRFTGTAYWGQGTLVTVSS VL: not shown | binds |
| BIIB-12-1298 (antibody, V domains shown, IgG) VH: QVQLVESGGGVVQPGRSLRLSCAASGFTFSSYGMHWVRQAPGKGLEWVAVISYDGSNKYYADSVKGRFTISRDNSKNTLYLQMNSLRAEDTAVYYCAKGGSDRRVGSWGQGTLVTVSS VL: DIQMTQSPSSVSASVGDRVTITCRASQGISSWLAWYQQKPGKAPKLLIYAASSLQSGVPSRFSGSGSGTDFTLTISSLQPEDFATYYCQQTNSLPITFGGGTKVEIK | binds |
| BIIB-12-1316 (antibody, V domains shown, IgG) VH: QVQLVESGGGVVQPGRSLRLSCAASGFTFSSYGMHWVRQAPGKGLEWVAVISYDGSNKYYADSVKGRFTISRDNSKNTLYLQMNSLRAEDTAVYYCAKSGQYRAFDIWGQGTMVTVSS VL: DIQMTQSPSSVSASVGDRVTITCRASQGISSWLAWYQQKPGKAPKLLIYAASSLQSGVPSRFSGSGSGTDFTLTISSLQPEDFATYYCQQINNFPPTFGGGTKVEIK | binds |
| BIIB-12-930 (antibody, V domains shown, IgG) VH: QVQLVQSGAEVKKPGASVKVSCKASGYTFTSYYMHWVRQAPGQGLEWMGIINPSGGSTSYAQKFQGRVTMTRDTSTSTVYMELSSLRSEDTAVYYCARVRQKATLLFQHWGQGTLVTVSS VL: not shown | binds |
| BIIB-12-1291 (antibody, V domains shown, IgG) VH: QVQLVQSGAEVKKPGASVKVSCKASGYTFTSYYMHWVRQAPGQGLEWMGIINPSGGSTSYAQKFQGRVTMTRDTSTSTVYMELSSLRSEDTAVYYCARSRRMWVGYFDLWGRGTLVTVSS VL: EIVLTQSPATLSLSPGERATLSCRASQSVSSYLAWYQQKPGQAPRLLIYDASNRATGIPARFSGSGSGTDFTLTISSLEPEDFAVYYCQQRLNLPLTFGGGTKVEIK | binds |
| BIIB-12-934 (antibody, V domains shown, IgG) VH: QVQLVESGGGVVQPGRSLRLSCAASGFTFSSYGMHWVRQAPGKGLEWVAVISYDGSNKYYADSVKGRFTISRDNSKNTLYLQMNSLRAEDTAVYYCARESGGHSYGMDVWGQGTTVTVSS VL: EIVLTQSPATLSVSPGERATLSCRASQSVSSNLAWYQQKPGQAPRLLIYGASTRATGIPARFSGSGSGTEFTLTISSLQSEDFAVYYCQQFNDHPITFGGGTKVEI | binds |
| BIIB-12-932 (antibody, V domains shown, IgG) VH: QVQLVESGGGVVQPGRSLRLSCAASGFTFSSYGMHWVRQAPGKGLEWVAVISYDGSNKYYADSVKGRFTISRDNSKNTLYLQMNSLRAEDTAVYYCARLGYRGASAFDIWGQGTMVTVSS VL: not shown | binds |
| BIIB-12-935 (antibody, V domains shown, IgG) VH: QVQLVESGGGVVQPGRSLRLSCAASGFTFSSYGMHWVRQAPGKGLEWVAVISYDGSNKYYADSVKGRFTISRDNSKNTLYLQMNSLRAEDTAVYYCARELEYGHYGMDVWGQGTTVTVSS VL: not shown | binds |
| BIIB-12-1305 (antibody, V domains shown, IgG) VH: QVQLVESGGGVVQPGRSLRLSCAASGFTFSSYGMHWVRQAPGKGLEWVAVISYDGSNKYYADSVKGRFTISRDNSKNTLYLQMNSLRAEDTAVYYCAKLGGRWSSDFQHWGQGTLVTVSS VL: EIVLTQSPATLSLSPGERATLSCRASQSVSSYLAWYQQKPGQAPRLLIYDASNRATGIPARFSGSGSGTDFTLTISSLEPEDFAVYYCQQSANWPPTFGGGTKVEIK | binds |

Next, values leading:

| binding result | Binder |
| --- | --- |
| binds | BIIB-12-931 (antibody, V domains shown, IgG) VH: QVQLVQSGAEVKKPGASVKVSCKASGYTFTSYYMSWVRQAPGQGLEWMGIINPSGGSTSYAQKFQGRVTMTRDTSTSTVYMELSSLRSEDTAVYYCARDPVQEYGPYYYYMDVWGKGTTVTVSS VL: EIVMTQSPATLSVSPGERATLSCRASQSVSSNLAWYQQKPGQAPRLLIYGASTRATGIPARFSGSGSGTEFTLTISSLQSEDFAVYYCQQAAYWPWTFGGGTKVEIK |
| binds | BIIB-12-1302 (antibody, V domains shown, IgG) VH: QVQLVQSGAEVKKPGASVKVSCKASGYTFTNYGISWVRQAPGQGLEWMGWISAYNGNTNYAQKLQGRVTMTTDTSTSTAYMELRSLRSDDTAVYYCARARSDWRAFDIWGQGTMVTVSS VL: EIVMTQSPATLSVSPGERATLSCRASQSVSSNLAWYQQKPGQAPRLLIYGASTRATGIPARFSGSGSGTEFTLTISSLQSEDFAVYYCQQVNNLPLTFGGGTKVEIK |
| binds | BIIB-12-936 (antibody, V domains shown, IgG) VH: not shown VL: EIVMTQSPATLSVSPGERATLSCRASQSVSSNLAWYQQKPGQAPRLLIYGASTRATGIPARFSGSGSGTEFTLTISSLQSEDFAVYYCQQSHNLPPTFGGGTKVEIK |
| binds | BIIB-12-1304 (antibody, V domains shown, IgG) VH: QVQLVESGGGVVQPGRSLRLSCAASGFTFSSYGMHWVRQAPGKGLEWVAVISYDGSNKYYADSVKGRFTISRDNSKNTLYLQMNSLRAEDTAVYYCAKGPGSRRFDIWGQGTMVTVSS VL: EIVMTQSPATLSVSPGERATLSCRASQSVSSNLAWYQQKPGQAPRLLIYGASTRATGIPARFSGSGSGTEFTLTISSLQSEDFAVYYCQQANVLPLTFGGGTKVEIK |
| binds | BIIB-12-1303 (antibody, V domains shown, IgG) VH: QVQLVESGGGVVQPGRSLRLSCAASGFTFSSYGMHWVRQAPGKGLEWVAVISYDGSNKYYADSVKGRFTISRDNSKNTLYLQMNSLRAEDTAVYYCARGPTSRLFQHWGQGTLVTVS VL: not shown |
| binds | BIIB-12-1306 (antibody, V domains shown, IgG) VH: QVQLQESGPGLVKPSQTLSLTCTVSGGSISSGGYYWSWIRQHPGKGLEWIGSIYYSGSTYYNPSLKSRVTISVDTSKNQFSLKLSSVTAADTAVYYCARGAGGSAPWGQGTLVTVSS VL: not shown |
| binds | BIIB-12-1289 (antibody, V domains shown, IgG) VH: QVQLVQSGAEVKKPGASVKVSCKASGYTFTSYYMHWVRQAPGQGLEWMGIINPGGGSTSYAQKFQGRVTMTRDTSTSTVYMELSSLRSEDTAVYYCARGPPRTYATGSHNWFDPWGQGTLVTVSS VL: not shown |
| binds | BIIB-12-1292 (antibody, V domains shown, IgG) VH: QVQLVQSGAEVKKPGASVKVSCKASGYTFTSYYIHWVRQAPGQGLEWMGIINPSGGSTSYAQKFQGRVTMTRDTSTSTVYMELSSLRSEDTAVYYCARDPGRRQSSGFDYWGQGTLVTVSS VL: EIVMTQSPATLSLSPGERATLSCRASQSVSSYLAWYQQKPGQAPRLLIYDSSNRATGIPARFSGSGSGTDFTLTISSLEPEDFAVYYCQQRLNFPFTFGGGTKVEIK |
| binds | BIIB-12-1310 (antibody, V domains shown, IgG) VH: EVQLVESGGGLVKPGGSLRLSCAASGFTFSSYSMNWVRQAPGKGLEWVSSISSSSSYIYYADSVKGRFTISRDNAKNSLYLQMNSLRAEDTAVYYCARLGGYGSSQRYFDLWGRGTLVTVSS VL: EIVLTQSPATLSLSPGERATLSCRASQSVSRYLAWYQQKPGQAPRLLIYDASNRATGIPARFSGSGSGTDFTLTISSLEPEDFAVYYCEQASNWPPTFGGGTKVEIK |
| binds | BIIB-12-1301 (antibody, V domains shown, IgG) VH: QVQLVESGGGVVQPGRSLRLSCAASGFTFSSYGMHWVRQAPGKGLEWVAVISYDGSNKYYADSVKGRFTISRDNSKNTLYLQMNSLRAEDTAVYYCARTGNYGRGMPYWGQGTLVTVSS VL: EIVLTQSPATLSLSPGERATLSCRASQSVSSYLAWYQQKPGQAPRLLIYDASKRATGIPARFSGSGSGTDFTLTISSLEPEDFAVYYCQQSSSWPPTFGGGTKVEIK |
| binds | BIIB-12-1297 (antibody, V domains shown, IgG) VH: QVQLVESGGGVVQPGRSLRLSCAASGFTFSSYGMHWVRQAPGKGLEWVAVISYDGSNKYYADSVKGRFTISRDNSKNTLYLQMNSLRAEDTAVYYCARSGGQTHRRSMDVWGQGTTVTVSS VL: EIVLTQSPATLSLSPGERATLSCRASQSVSRYLAWYQQKPGQAPRLLIYDASNRATGIPARFSGSGSGTDFTLTISSLEPEDFAVYYCQQGNNWPPTFGGGTKVEIK |
| binds | BIIB-12-929 (antibody, V domains shown, IgG) VH: QVQLVQSGAEVKKPGASVKVSCKASGYTFTSYYMHWVRQAPGQGLEWMGIINPSGGSTSYAQKFQGRVTMTRDTSTSTVYMELSSLRSEDTAVYYCARDQGYSRSFDIWGQGTMVTVSS VL: not shown |
